PMC12171016, “hnRNP A1 induces aberrant CFTR exon 9 splicing via a newly discovered ESS element”

Target: hnRNP A1 tandem RRMs (UP1-like) (UniProt P09651 1-196)
Assay: fluorescence anisotropy; 35 C; NMR buffer: sodium phosphate pH 6.5 (50 mM for tandem RRMs, 25 mM for single RRMs), 1 mM BME, 50 uM EDTA, no added salt stated; ITC 25 C, NMR 298 K (10% D2O), FA 35 C
Conditions: protein: recombinant; tags: 2xHis6-lipoyl tag removed by TEV; label: 3' fluorescein

hnRNP A1 tandem RRMs (UP1-like), sequence (P09651 1-196): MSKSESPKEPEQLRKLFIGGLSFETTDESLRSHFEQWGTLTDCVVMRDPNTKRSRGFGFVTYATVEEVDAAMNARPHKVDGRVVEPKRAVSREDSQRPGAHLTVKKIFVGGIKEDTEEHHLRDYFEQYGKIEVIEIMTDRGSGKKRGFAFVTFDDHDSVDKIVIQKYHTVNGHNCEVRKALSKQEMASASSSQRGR

Binder	Kd
CAGGGAUUUGGGGAC (ssRNA) [CFTR exon 9 ESS 15-mer ssRNA wt]	99 nM
CAGGGAUUUCGCGUA (ssRNA) [CFTR exon 9 ESS 15-mer ssRNA mut4]	117 nM
